Data from patent US8455448B2, “Myostatin isoform” (Myostin Therapeutics Pty Ltd, priority 2004, dated 2013).

Legend:
[1] = test system: myostatin mRNA expression; experiment: Myostatin mRNA expression in C2C12 murine myoblasts (real-time PCR); format: cell-based; details: 10 μg/ml, FIG. 14
Description: C2C12 myoblasts were seeded in 10 cm diameter tissue culture plates (Nunc, Roskilde, Denmark) at a cell density of 3000 cells per cm^2 in 10 ml of Dulbecco's modified Eagle's medium (DMEM, Invitrogen, California) supplemented with foetal bovine serum (FBS, 10% v/v, Invitrogen), penicillin (1×10^5 IU/I, Sigma, St Louis, Mo., USA) and streptomycin (100 mg/l, Sigma) buffered with NaHCO3 containing phenol red (7.22 nmol/l) as a pH indicator, and incubated overnight at 37° C. with 5% CO2. For a set of eight plates (chronic treatment, designated “A”) the medium was replaced with the test medium: DMEM with 2.5% FBS supplemented with 0 or 10 μg/ml oMSV47 (n=4). The plates “A” were then incubated at 37° C. with 5% CO2 for 48 hours. […] RNA was re-suspended in diethyl pyrocarbonate-treated water and the total RNA concentration determined by measuring absorbance at 260 nm (Nanodrop Spectrophotometer, Delaware, USA). […] The following experimental run protocol was used: denaturation (95° C. for 5 min), amplification (95° C. for 5 sec, 62° C. for 10 sec, 72° C. for 20 sec, with a single fluorescence measurement, 50 cycles), melt curve (60-95° C. with a heating rate of 0.1° C. per sec with continuous fluorescence measurement) on a LightCycler 2.0 PCR machine (Roche Diagnostics). Arbitrary concentrations were calculated by the Lightcycler software using a standard curve (Roche Diagnostics).

myogenin = experiment: Myogenin protein in differentiating C2C12 myoblasts (Western blot); format: cell-based, murine; details: 0, 0.1, 1, 10 μg/ml, 72 h in differentiation medium, FIG. 4
Description: (§1) To investigate whether roMSV65 regulates myoblast differentiation or myotube hypertrophy, C2C12 myoblast cultures were employed. Levels of well-established early and late molecular markers of myogenic differentiation like myogenin and dMHC were measured in the presence and absence of roMSV65 protein.
(§2) C2C12 myoblasts were seeded in 10 cm diameter tissue culture plates (Nunc, Roskilde, Denmark) at a cell density of 25,000 cells per cm^2 in 10 ml of Dulbecco's modified Eagle's medium (DMEM, Invitrogen, California) supplemented with foetal bovine serum (FBS, 10% v/v, Invitrogen), penicillin (1×10^5 IU/l, Sigma, St Louis, Mo., USA) and streptomycin (100 mg/I, Sigma) buffered with NaHCO3 containing phenol red (7.22 nmol/l) as a pH indicator, and incubated overnight at 37° C. with 5% CO2.
To study myoblast differentiation, the medium was replaced with the test medium: DMEM with 2% Horse Serum supplemented with 0, 0.1, 1 or 10 μg/ml roMSV65 in three replicates for each concentration (n=3). […]
(§3) Cells were removed from the plate by trypsin treatment, washed with phosphate buffered saline (PBS, Oxoid, UK) and resuspended in 200 μl of lysis buffer (10 mM Hepes pH 7.9, 1.5 mM MgCl2, 10 mM KCl, 0.5% NP40, one Complete protease inhibitor tablet [Roche Diagnostics, USA] per 50 ml buffer). […] Band intensities were measured with a GS800 densitometer (Bio-Rad, CA).

[2] = test system: developmental myosin heavy chain (dMHC); experiment: Developmental myosin heavy chain (dMHC) protein in C2C12 myotubes (Western blot); format: cell-based, murine; details: FIG. 5
Description: as §1, §2
To study myoblast differentiation, the medium was replaced with the test medium: DMEM with 2% Horse Serum supplemented with 0, 0.1, 1 or 10 μg/ml roMSV65 in three replicates for each concentration (n=3). Plates were incubated at 37° C. with 5% CO2 for 72 hours.
as §3, with “buffer). The protein concentration was estimated using the bicinchoninic acid (BCA, Sigma, Missouri) protein assay. 20 μg of total protein was separated by SDS-PAGE (8% for MHC or 12% for myogenin) and transferred to nitrocellulose membrane by electroblotting. The blots were stained with Ponceau S stain to check equal loading.” for “buffer).”

Molecule	expression of myostatin (real-time PCR) ([1]; acutely, 6 h from 48 to 54 h)	expression of myostatin (real-time PCR) ([1]; chronically, from seeding to 48 h)	myogenin protein levels in C2C12 myotubes (myogenin)	increase in dMHC abundance compared to untreated controls ([2]; 0.1 μg/ml roMSV65, 72 h) [fold]	increase in dMHC abundance compared to untreated controls ([2]; 1 μg/ml roMSV65, 72 h) [fold]	increase in dMHC abundance compared to untreated controls ([2]; 10 μg/ml roMSV65, 72 h) [fold]
roMSV47: 47 amino acid C-terminal mature ovine MSV fragment (SEQ ID NO: 50), recombinant from E. coli (IIFLEVYIQFCSILGEAVFKRQSKSIHFCQNFKIIACLCNTAAFRMK; Ovis aries)	suppresses the expression of myostatin	suppresses the expression of myostatin	–	–	–	–
roMSV65: 65 amino acid C-terminal peptide of ovine MSV (SEQ ID NO: 49) expressed as recombinant protein in E. coli (protein, Ovis aries) VHFYTPPYGQWIFHKERKIIFLEVYIQFCSILGEAVFKRQSKSIHFCQNFKIIACLCNTAAFRMK	–	–	dose-dependently increases myogenin protein levels	18	20	2
